Assay results taken from patent publication US20040072301A1 (VAN ANDEL RESEARCH INSTITUTE, published 2004).
Positions count from the first letter of the chain named. Numbers in names are those of the source. One block for each binder: values may come before it.

Key:
[1] = molecular target: T1, Arp2/3 complex from NIH 3T3 cell lysates (UniProt P61161 1-394; Q99JY9 2-418; Q9WV32 1-372; Q9CVB6 1-300; Q9JM76 2-178; P59999 …); assay: GST pull-down from NIH 3T3 cell extracts, immunoblot
Protocol: (§1) Recombinant protein purification, in vitro GST-‘pull downs’ and two-hybrid assays. Two-hybrid assays and in vitro translation/GST-pull downs were conducted as previously described (Tominaga et al., supra; Sahai, E. et al., Embo J 17, 1350-61 (1998)). […] Beads were rinsed three times with PBS 1×supplemented with 0.1 μg/μl of BSA and were analyzed by SDS-PAGE and immunoblotted with purified antibodies recognising either Arp3, p34, or actin. For pull-downs from cell extracts, NIH 3T3 cells were lysed and extracted as per (Machesky, L. M. et al., Curr Biol 8, 1347-56 (1998)), and incubated with purified GST-fusion proteins bound to glutathione beads before extensive washing, separation by SDS-PAGE, transfer, and immunoblotting.
After incubation, the complexes were washed extensively and the resulting protein complexes were separated by SDS-PAGE, transferred to membranes, and analyzed by Western blots using antibodies directed to actin, Arp3 and p34 Arc (Welch, M. D. et al., Nature 385, 265-9 (1997)).

[2] = molecular target: T2, mDia2 DAD (amino acids 1031-1171), yeast two-hybrid Gal4 fusion (mouse, UniProt Q9Z207 1031-1171); assay: yeast two-hybrid, HIS reporter growth on 3-aminotriazole
T2 construct: Two-hybrid construct; also called DRF-autoregulatory domain; Dia-autoregulatory domain
Protocol: Yeast reporter strain HF7c was transformed with the indicated ‘bait’ (Trp⁻) and ‘prey’ (Leu⁻) plasmids before restreaking on selective plates (His) with increasing concentrations 3-aminotriazole (0, 2, 4, 8, 16, 32, and 64 mM) that selects for correlating expression of the HIS-reporter gene. The indicated numbers correspond to the highest concentration of 3-AT on which there was growth after 3 days. […] The mDia2 plasmid encodes amino acids 47-800.
(§2) Two-hybrid assays and in vitro translation/GST-pull downs were conducted as previously described (Kikyo et al., supra; Hill, C. S. et al., supra). In short, the indicated ‘bait’ proteins were generated by subcloning the indicated cDNAs into pGBT9 Gal4 DNA binding domain plasmid; ‘prey’ were Gal4 activation domain fusion proteins generated in either pGAD 10 or pSE1107. HF7c (Clontech) reporter yeast strain were co-transformed with the indicated plasmids and selected on appropriate plates for bait and prey auxotrophic markers, then restreaked onto His-plate to select for Gal4 regulated HIS reporter expression. Levels of reporter activity were monitored by replicate streaking onto Trp/Leu/His-plates with increasing concentrations (0-64 mM) of 3-aminotriazole.

[3] = molecular target: T1, Arp2/3 complex from NIH 3T3 cell lysates; assay: GST pull-down from NIH 3T3 cell lysates, immunoblot with anti-p34 Arc
Protocol: 15 μg of the indicated fusion protein was indubated with lysates as in FIGS. 7a-7c. Bound material was detected after extensive washing and immunoblotting with anti-p34 Arc.
as §1

[4] = molecular target: mDia2 (amino acids 47-800), yeast two-hybrid Gal4 fusion (mouse, UniProt Q9Z207 47-800); assay: yeast two-hybrid
Protocol: as §2
The mutants were tested for binding by two-hybrid analysis and were then expressed in cells.

Chain of mDia2 (amino acids 47-800), yeast two-hybrid Gal4 fusion (Q9Z207 47-800 limits assumed): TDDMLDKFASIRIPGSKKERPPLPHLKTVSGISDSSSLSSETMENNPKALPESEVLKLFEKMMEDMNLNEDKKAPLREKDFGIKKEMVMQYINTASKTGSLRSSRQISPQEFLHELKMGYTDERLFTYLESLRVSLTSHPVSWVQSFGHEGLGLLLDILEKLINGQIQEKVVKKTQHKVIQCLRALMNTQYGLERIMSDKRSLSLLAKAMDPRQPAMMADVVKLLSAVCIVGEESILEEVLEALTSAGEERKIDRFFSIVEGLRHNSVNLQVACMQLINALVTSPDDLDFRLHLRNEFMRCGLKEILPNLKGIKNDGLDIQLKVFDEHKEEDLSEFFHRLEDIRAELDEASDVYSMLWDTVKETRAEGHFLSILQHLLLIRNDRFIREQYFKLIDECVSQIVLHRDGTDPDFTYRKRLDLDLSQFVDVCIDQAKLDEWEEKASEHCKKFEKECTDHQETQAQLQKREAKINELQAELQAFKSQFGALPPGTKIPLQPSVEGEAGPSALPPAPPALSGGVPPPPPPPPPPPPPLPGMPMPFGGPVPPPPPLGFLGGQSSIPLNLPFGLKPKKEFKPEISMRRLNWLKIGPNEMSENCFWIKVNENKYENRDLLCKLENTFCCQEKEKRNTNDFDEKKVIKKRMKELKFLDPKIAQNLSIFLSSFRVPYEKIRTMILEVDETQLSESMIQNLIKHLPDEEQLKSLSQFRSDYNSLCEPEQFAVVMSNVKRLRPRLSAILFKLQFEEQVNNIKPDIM

B1: GST fusion of mDia2 GBD (amino acids 101-216) (other)
chain: VLKLFEKMMEDMNLNEDKKAPLREKDFGIKKEMVMQYINTASKTGSLRSSRQISPQEFLHELKMGYTDERLFTYLESLRVSLTSHPVSWVQSFGHEGLGLLLDILEKLINGQIQEK
notes: not shown: glutathione-S-transferase tag of pGEX-KG
binding result [1]: no binding

B2: mDia2 FH1 (amino acids 521-630), yeast two-hybrid Gal4 fusion (other, not shown: small tags and cut ends)
chain: AELQAFKSQFGALPPGTKIPLQPSVEGEAGPSALPPAPPALSGGVPPPPPPPPPPPPPLPGMPMPFGGPVPPPPPLGFLGGQSSIPLNLPFGLKPKKEFKPEISMRRLNW
binding result [2]: no binding

B6: GST-DAD K1059E/R1060E (other)
chain: MKTEGDETGVMDSLLEALQSGAAFRDRREETPKLKDIRQSLSPMSQRPVLKVCNHENQKMQLTEGSRPHHSINCNSTRTPVAKELNYNLDTHASTGRIKAVEKEACNAESNKKKEMELLGSVAKSESVPEVEALLARLRAL
notes: not shown: Glutathione-S-transferase carrier (pGEX-KG) and its linker at the N end
binding result [3]: no binding (tested: 15 ug fusion protein)

B7: mDia2 DAD M1041A, yeast two-hybrid Gal4 fusion (other, not shown: small tags and cut ends)
chain: B6 chain with M11A, E29K, E30R
binding result [4]: no binding

B10: GST-DAD R1057E/R1058E (other)
chain: B6 chain with R27E, R28E, E29K, E30R
notes: as for B6
binding result [3]: no binding (tested: 15 ug fusion protein)

Second part, the binder after the results:

binding result [1]: no binding
B3: GST fusion of mDia2 FH1 (amino acids 521-630) (other)
chain: B2 chain
notes: as for B1

binding result [1]: no binding
B4: GST fusion of mDia2 FH2 (amino acids 801-910) (other)
chain: AVSTACEEIKKSKGFSKLLELVLLMGNYMNAGSRNAQTFGFDLSSLCKLKDTKSADQKTTLLHFLVDVCEEKHADILHFVDDLAHLDKASRVSVEMLEKNVKQMGRQLQQ
notes: as for B1

binding result [2]: no binding
B5: mDia2 FH2 (amino acids 801-910), yeast two-hybrid Gal4 fusion (other, not shown: small tags and cut ends)
chain: B4 chain

binding result [4]: no binding
B8: mDia2 DAD L1044A, yeast two-hybrid Gal4 fusion (other, not shown: small tags and cut ends)
chain: B6 chain with L14A, E29K, E30R

binding result [4]: no binding
B9: mDia2 DAD L1048A, yeast two-hybrid Gal4 fusion (other, not shown: small tags and cut ends)
chain: B6 chain with L18A, E29K, E30R
